# From US20230398184A1, “METHODS OF INDUCING STEM CELL MOBILIZATION” (NeoImmuneTech, Inc., priority 2020, published 2023)
# B1: PEG-rhG-CSF: long-acting pegylated recombinant human G-CSF (protein, UniProt P09919 31-207, looked up)
# Granulocyte …: TPLGPASSLPQSFLLKCLEQVRKIQGDGAALQEKLVSECATYKLCHPEELVLLGHSLGIPWAPLSSCPSQALQLAGCLSQLHSGLFLYQGLLQALEGISPELGPTLDTLQLDVADFATTIWQQMEELGMAPALQPTQGAMPAFASAFQRRAGGVLVASHLQSFLEVSYRVLRHLAQP
# modifications: PEG
# B2: rhG-CSF: non-pegylated recombinant human G-CSF (protein, UniProt P09919 31-207, looked up)
# Granulocyte …: B1 Granulocyte …
# How the values were obtained:
# Type in all cases: in vivo, C57BL/6 mice
# LSK cells and HSCs [1] = assay: IL-7 and AMD3100 combination, HSC mobilization into peripheral blood; settings: IL-7 0.5 mg/kg day 0; AMD3100 5 mg/kg 1 hour prior to analysis; day 3
# Procedure: As described herein, AMD3100 (CXCR4 antagonist) is another regimen that is commonly used to promote the migration of HSCs from the bone marrow into the peripheral blood. Cashen et al., Future Oncol 3(1): 19-27 (February 2007). To determine whether IL-7 can also enhance the HSC mobilization effects of AMD3100, C57BL/6 animals received a single subcutaneous administration of the following: (i) buffer alone, (ii) IL-7 alone (0.5 mg/kg), (iii) AMD3100 (5 mg/kg), and (iv) IL-7 (0.5 mg/kg) in combination with AMD3100 (5 mg/kg). […] At day 3 post initial administration, the number of both LSK cells and HSCs were again assessed in the peripheral blood using flow cytometry.
# LSK cells and HSCs [2] = assay: Comparison of IL-7 with G-CSF and G-CSF + AMD3100 on mobilization of HSCs to peripheral blood; settings: PEG-rhG-CSF 5 μg s.c. day 3; rhG-CSF 6.25 μg/day days 0-3
# Procedure: As described herein, granulocyte colony stimulating factor (G-CSF) is a standard regimen used in the clinic to induce HSC mobilization. Therefore, the potency of IL-7 was compared to that of G-CSF on inducing the mobilization of HSCs to peripheral blood was assessed. Briefly, C57BL/6 mice were treated with one of the following: (i) control buffer (“control”), (ii) IL-7 protein (“IL-7”) (2.5 mg/kg; subcutaneous), (iii) long-acting pegylated recombinant human G-CSF (“PEG-rhG-CSF”) (5 μg; subcutaneous), or (iv) non-pegylated recombinant human G-CSF (“rhG-CSF”) (twice a day (6.25 μg/day) at days 0, 1, 2, and 3 (i.e., total dose of 25 μg/mouse); subcutaneous). In animals treated with the IL-7 protein or PEG-rhG-CSF, the number of LSK cells and HSCs was determined in the peripheral blood at day 3 post administration. In animals treated with rhG-CSF, the number of LSK cells and HSCs in the peripheral blood was assessed within 6-8 hours after last rhG-CSF administration.
# In this regard, the potency of IL-7 protein alone to the G-CSF+AMD3100 combinational regimen was next compared. Briefly, normal C57BL/6 mice were administered with one of the following: (i) control buffer, (ii) IL-7 protein alone, (iii) pegylated recombinant human G-CSF (“G-CSF”), or (iv) G-CSF in combination with AMD3100. Then, the number of HSCs in the peripheral blood was assessed at day 3 post administration.
# LSK cells and HSCs [3] = assay: IL-7 and G-CSF combination, HSC mobilization into peripheral blood; settings: IL-7 0.5 mg/kg or G-CSF 5 μg s.c., day 3
# Procedure: To determine whether the combined treatment of IL-7 and G-CSF can further improve the mobilization of HSCs into the peripheral blood, C57BL/6 animals received a single subcutaneous administration of one of the following: (i) buffer alone, (ii) IL-7 alone (0.5 mg/kg), (iii) pegylated recombinant human G-CSF alone (5 μg), and (iv) IL-7 (0.5 mg/kg) in combination with G-CSF (5 μg). Then, at day 3 post administration, both the number of LSK cells and HSCs in the peripheral blood were assessed using flow cytometry.
molecule,measurement,setting,value
c1cc(CN2CCCNCCNCCCNCC2)ccc1CN1CCCNCCNCCCNCC1 [AMD3100],amount of LSK cells and HSCs in peripheral blood vs control,LSK cells and HSCs [1],comparable to that of the control animals
B1,"efficacy of mobilization, the two types of G-CSF compared",LSK cells and HSCs [2],comparable efficacy of mobilization
same,amount of LSK cells in peripheral blood vs buffer alone,LSK cells and HSCs [3],increased amount
B2,"efficacy of mobilization, the two types of G-CSF compared",LSK cells and HSCs [2],comparable efficacy of mobilization
